Results: paper PMC5704897 (Molecular cell, 2006)
Where two headings read alike, the source gives them in different places. Values belong to the molecule of their own block, whether it stands above or below them.

How the values were obtained:
Assay in all cases: native MS
human Cdc37 (human) [1] = molecular target: human Cdc37 (human) (UniProt Q16543)
[2] = molecular target: His6-tagged kinase domain of B-Raf (human) (UniProt P15056)
human Cdc37 (human) [3] = molecular target: human Cdc37 (human) (UniProt Q16543); remark: listed apart in the source
[4] = molecular target: T1, human Cdc37 (human), Q16543; conditions: remark: other sources report otherwise
T1 chain: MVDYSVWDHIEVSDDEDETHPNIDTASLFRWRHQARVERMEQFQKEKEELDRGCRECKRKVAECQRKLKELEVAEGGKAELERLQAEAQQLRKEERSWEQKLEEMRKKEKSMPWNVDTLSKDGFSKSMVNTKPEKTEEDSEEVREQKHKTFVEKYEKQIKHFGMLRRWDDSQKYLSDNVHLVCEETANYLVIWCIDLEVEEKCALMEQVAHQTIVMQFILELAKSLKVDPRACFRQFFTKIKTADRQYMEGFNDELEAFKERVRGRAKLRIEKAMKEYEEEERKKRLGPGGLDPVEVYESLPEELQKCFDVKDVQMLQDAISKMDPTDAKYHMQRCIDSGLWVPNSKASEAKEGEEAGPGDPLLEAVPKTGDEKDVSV

[5] = molecular target: His6-tagged kinase domain of B-Raf (human, UniProt P15056 457-717)
Chain of His6-tagged kinase domain of B-Raf (P15056 457-717): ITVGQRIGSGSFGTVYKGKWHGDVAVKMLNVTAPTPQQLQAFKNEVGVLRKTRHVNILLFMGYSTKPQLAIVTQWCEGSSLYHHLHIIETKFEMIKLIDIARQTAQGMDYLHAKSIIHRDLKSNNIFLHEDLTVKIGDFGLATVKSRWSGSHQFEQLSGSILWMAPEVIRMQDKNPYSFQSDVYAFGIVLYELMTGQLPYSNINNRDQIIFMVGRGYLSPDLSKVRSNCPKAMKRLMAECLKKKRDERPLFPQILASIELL

Chain of His6-tagged kinase domain of B-Raf (human) (P15056 457-717): as above

stoichiometry N (Hsp90 per Cdc37) (human Cdc37 (human) [1]): 2
stoichiometry N (Hsp90 per B-Raf) [2]: 2
stoichiometry N (Hsp90 per Cdc37) (human Cdc37 (human) [3]): 2
Molecule: Spodoptera frugiperda Hsp90 homologue (natural protein)

stoichiometry N (Cdc37 chains in the oligomer) [4]: 2
B1: human Cdc37, Q16543 1-378 (natural protein)
chain: MVDYSVWDHIEVSDDEDETHPNIDTASLFRWRHQARVERMEQFQKEKEELDRGCRECKRKVAECQRKLKELEVAEGGKAELERLQAEAQQLRKEERSWEQKLEEMRKKEKSMPWNVDTLSKDGFSKSMVNTKPEKTEEDSEEVREQKHKTFVEKYEKQIKHFGMLRRWDDSQKYLSDNVHLVCEETANYLVIWCIDLEVEEKCALMEQVAHQTIVMQFILELAKSLKVDPRACFRQFFTKIKTADRQYMEGFNDELEAFKERVRGRAKLRIEKAMKEYEEEERKKRLGPGGLDPVEVYESLPEELQKCFDVKDVQMLQDAISKMDPTDAKYHMQRCIDSGLWVPNSKASEAKEGEEAGPGDPLLEAVPKTGDEKDVSV
modifications: here or on the partner: phosphoserine at 13 (pSer 13); phosphoserine at 13 (pSer 13)

stoichiometry N [5]: 1 Cdc37 per B-Raf
B2: human Cdc37 (natural protein, UniProt Q16543 1-378, looked up)
chain: MVDYSVWDHIEVSDDEDETHPNIDTASLFRWRHQARVERMEQFQKEKEELDRGCRECKRKVAECQRKLKELEVAEGGKAELERLQAEAQQLRKEERSWEQKLEEMRKKEKSMPWNVDTLSKDGFSKSMVNTKPEKTEEDSEEVREQKHKTFVEKYEKQIKHFGMLRRWDDSQKYLSDNVHLVCEETANYLVIWCIDLEVEEKCALMEQVAHQTIVMQFILELAKSLKVDPRACFRQFFTKIKTADRQYMEGFNDELEAFKERVRGRAKLRIEKAMKEYEEEERKKRLGPGGLDPVEVYESLPEELQKCFDVKDVQMLQDAISKMDPTDAKYHMQRCIDSGLWVPNSKASEAKEGEEAGPGDPLLEAVPKTGDEKDVSV
modifications: phosphoserine at 13 (pSer 13)
